The values below come from patent US20230212266A1 (FRED HUTCHINSON CANCER CENTER, published 2023).

Read-outs that look alike come from different tables or passages of the source.

What all share (assay): BLI, mAb on anti-human Fc probe, antigen in solution
A general note: Biolayer interferometry detects binding as a change in optical thickness at a sensor tip.

Test [1] addresses T1, SARS-CoV-2 receptor binding domain (RBD) (SARS-CoV-2, UniProt P0DTC2 319-591).
Test [2] concerns the target T1, SARS-CoV-2 receptor binding domain (RBD). The source holds these as a separate data set.
Test [3] shares this target. The source holds these as a separate data set.
Test [4] has the same target. This is another data set of the same source.
For test [5] the target is unchanged. The source holds these as a separate data set.
For test [6] the target is unchanged. This is another data set of the same source.
Test [7] has the same target. The source holds these as a separate data set.
For test [8] the target is unchanged. The source holds these as a separate data set.
Test [9] has the same target. This is another data set of the same source.
Test [10] shares this target. The source holds these as a separate data set.
The target is the same in test [11]. This is another data set of the same source.
The target is the same in test [12]. The source holds these as a separate data set.
Test [13] has the same target. This is another data set of the same source.
For test [14] the target is unchanged. This is another data set of the same source.
Test [15] has the same target. The source holds these as a separate data set.
Test [16] shares this target. The source holds these as a separate data set.

B1: CV2-11 (antibody, V domains shown)
VH: EVQLVESGGGLVKPGGSLRLSCAASGFTFSSYSMNWVRQAPGKGLEWVSSISSSRSYIYYADSVKGRFTISRDNAKNSLYLQMNSLRAEDTAVYYCASNPAADPNTYYYYGMDVWGQGTTVTVSS
VL: QPVLTQPPSASASLGASVTLTCTLSSGYSNYKVDWYQQRPGKGPRFVMRVGTGGIVGSKGDGIPDRFSVLGSGLNRYLTIKNIQEEDESDYHCGADHGSGSNFVGVFGGGTKLTVL
notes: expressed as IgG
Consider B1, for which the binding result in test [1] is recorded as “no binding”.

B2: CV2-13 (antibody, V domains shown)
VH: EVQLVESGGGLVQPGGSLRLSCAASGFTFSSYEMNWVRQAPGKGLEWVSYISSSGSTIYYADSVKGRFTISRDNAKNSLYLEMNSLRAEDTAVYYCASTSDSGSYYIHWYFDLWGRGTLVTVSS
VL: QSALTQPASVSGSPGQSITISCTGTSSDVGSYNLVSWYQQHPGKAPKLMIYDVSKRPSGVSNRFSGSKSGNTASLTISGLQAEDEADYYCCSHAGSSTSYIFGTGTKVTVL
notes: expressed as IgG
For the molecule B2, in test [2], the binding result was “no binding”.

B3: CV2-17 (antibody, V domains shown)
VH: EVQLVESGGGLVQPGGSLRLSCSASGFTFSSYAMHWVRQAPGKGLEYVSTISTNGGSTYYADSVKGRFTISRDNSKNTLYLQMSSLRAEDTAVYYCVLGYCSSTSCQHFDYWGQGTLVTVSS
VL: QSALTQPASVSGSPGQSITISCTGTSSDVGAYNYVSWYQQHPGKAPKLMIYEVSNRPSGVSNRFSGSKSGNTASLTISGLQAEDEADYYCSSYTSSSTPYVFGTGTKVTVL
notes: expressed as IgG
Regarding B3, the binding result in test [3] is recorded as “no binding”.

B4: CV2-18 (antibody, V domains shown)
VH: QVQLVQSGAEVKKPGSSVKVSCKASGGTFSSYAISWVRQAPGQGLEWMGGIIPIFGTANYAQKFQGRVTITADESTSTAYMELSSLRSEDTAVYYCARVGAYDSSGYYQDLWGRGTLVTVSS
VL: EIVLTQSPATLSLSPGERATLSCRASQSVSSYLAWYQQKPGQAPRLLIYDASNRATGIPARFSGSGSGTDFTLTISSLEPEDFAVYYCQQRSNWPPVITFGQGTRLEIK
notes: expressed as IgG
For B4, in test [4], the binding result is given as “no binding”.

B5: CV2-5 (antibody, V domains shown)
VH: QVQLVQSGAEVKKPGSSVKVSCKASGGTFSSYAISWVRQAPGQGLEWMGGIIPIFGTTNNAQKFQGRVTLTADESTSAAYMELSSLRSEDTAVYYCARIEPYASTGYTFDYWGQGTLVTVSS
VL: EIVLTQSPATLSLSPGERATLSCRASQSVSSFLAWYQQKPGQAPRLLIYDASNRATGIPARFSGSGSGTDFTLTISSLEPEDFAVYYCQQRSNWPPRITFGQGTRLEIK
notes: expressed as IgG
With B5, the binding result in test [5] is reported as “no binding”.

B6: CV2-15 (antibody, V domains shown)
VH: QVQLVQSGAEVKKPGSSVKVSCKTSGGIFSSYAISWVRQAPGQGLEWMGGIIPIFGTANYAQKFQGRVTITADESTSTAYMELSSLRSEDTAVYYCASYSGFDDYGHYRNYWGQGTLVTVSS
VL: DIVMTQTPATLSLSPGERATLSCRASQSVSRYLAWYQQKPGQAPRLLIYDASNRATGIPARFSGSGSGTDFTLTISSLEPEDFAVYYCQQRYNWPPELTFGGGTKVEIK
notes: expressed as IgG
For the molecule B6, the binding result in test [6] was “no binding”.

B7: CV2-16 (antibody, V domains shown)
VH: QVQLVQSGAEVKKPGSSVKVSCKASGGTFSSFAFIWVRQAPGQGLEWMGGIIPIFGTAKYTQKFQGRVTITADESTSTAYMELSSLRSEDTAVYYCARVSYYDSSGFYTDYWGQGTLVTVSS
VL: DIVMTQSPATLSLSPGERATLSCRASQSVSSFLAWYQQKPGQAPRLLIYDASNRATGIPARFSGSGSGTDFTLTISSLEPEDFAVYYCQQRSNWPPEYTFGQGTKLEIK
notes: expressed as IgG
In the case of B7, the binding result in test [7] is given as “no binding”.

B8: CV2-12 (antibody, V domains shown)
VH: QVQLVESGGGVVQPGRSLRLSCAASGFTFSSYGIHWVRQAPGKGLEWVAVISYDGINKYYADSVKGRFTISRDNSKNTLYLHMNSLRAEDTAVYYCARPNSGSYHSYFDYWGQGTLVTVSS
VL: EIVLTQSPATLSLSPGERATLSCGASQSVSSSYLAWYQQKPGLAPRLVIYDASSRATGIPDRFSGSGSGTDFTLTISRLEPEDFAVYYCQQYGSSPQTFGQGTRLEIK
notes: expressed as IgG
As for B8, the binding result in test [8] is listed as “no binding”.

B9: CV2-19 (antibody, V domains shown)
VH: QVQLVESGGGVVQPGRSLRLSCAASGFTFSSYAMHWVRQAPGKGLEWVAIISYDGINKYYADSVKGRFTISRDNSKNTLYLQMNSLRVEDTAVYYCARPGGGSYYGPFDYWGQGTLVTVSS
VL: QSALTQPASVSGSPGQSITISCTGTSSDVGSYNYVSWYQQHPGKAPKLMIYEVSNRPSGVSNRFSGSKSGNTASLTLSGLQAEDEADYYCSSYTSSSTLYVFGTGTKVTVL
notes: expressed as IgG
In the case of B9, the binding result in [9] is “no binding”.

B10: CV2-10 (antibody, V domains shown)
VH: QVQLQESGPGLVKPSGTLSLTCAVSGGSISSSTWWSWVRQPPGKGLEWIGEIYHSGSTNYNPSLKSRVTISVDKSKNQFSLKLSSVTAADTAVYYCARSASNYFGYYYYGMDVWGQGTTVTVSS
VL: EIVLTQSPATLSLSPGERATLSCRASQSVSSQLAWYQQKPGQAPRLLISDASNRATGIPARFSGSGSGTDFTLTISSLEPEDFAVYYCQQRSNWPRTFGQGTKVEIK
notes: expressed as IgG
On to B10, for which, in test [10], the binding result is given as “no binding”.

B11: CV2-14 (antibody, V domains shown)
VH: QVQLVESGGGVVQPGRSLRLSCAASGFTFSSFALHWVRQAPGKGLEWVAVVSYDGSNKYYADSVKGRFTISRDNSKNTLYLQMNSLRAEDTAAYYCARSMGGNYADYFDYWGQGTLVTVSS
VL: EIVLTQSPATLSLSPGERATLSCRASQSVTNYLAWYQQKPGQAPRLLIYDASNRATGIPARFSGSGSGTDFTLTISSLEPEDFAVYYCQQRSNWPNTFGQGTRLEIK
notes: expressed as IgG
As for B11, the binding result in test [11] is “no binding”.

B12: CV2-6 (antibody, V domains shown)
VH: QVQLVESGGGVVQPGRSLRLSCAASGFTFSIYAIHWVRQAPGKGLEWVAVISYDGINKYYADAVKGRFTISRDNSKNTLFLQMNSLRTEDTAVYYCARAMGGNYFHAFDIWGQGTMVTVSS
VL: EIVLTQSPGTLSLSPGERATLSCRASQSVSSSYLAWYQRKPGQAPRLLIYGASNRATGIPDRFSGSGSGTDFTLTISRLEPEDFAVFYCQQYGSSPWTFGQGTKVEIK
notes: expressed as IgG
As for B12, the binding result in [12] is “no binding”.

B13: CV8 (antibody, V domains shown)
VH: QVQLVQSGAEVKKPGASVKVSCKASGYTFTSYGISWVRQAPGQGLEWMGWISAYNGNTNYAQKLQGRVTMTTDTSTSTAYMELRSLRSDDTAVYYCARLVPTWASYYDFWSGYPGGYGMDVWGQGTTVTVSS
VL: not shown
notes: expressed as IgG
With B13, in [13], the binding result is on record as “no binding”.

B14: CV2-8 (antibody, V domains shown)
VH: QVQLVESGGGVVQPGRSLRLSCGASGFIFSSYAMHWVRQAPGKGLEWVAVISYDGNNKYYADSVKGRFTISRDNSKNTLYLQMNSLRAEDTAVYYCARPYSGTYFSAFDIWGQGTMVTVSS
VL: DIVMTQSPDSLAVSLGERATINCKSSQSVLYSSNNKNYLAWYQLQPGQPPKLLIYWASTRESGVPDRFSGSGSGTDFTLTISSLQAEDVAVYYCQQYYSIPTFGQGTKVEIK
notes: expressed as IgG
With B14, the binding result in test [14] was “no binding”.

B15: CV2-21 (antibody, V domains shown)
VH: QVQLVQSGAEVKKPGASVKVSCKAFGYTFTKNGINWVRQAPGQGLEWMGWISPNNGYTNFAQKFQGRATMTSDTSTSTAYMELRSLRSDDTAVYYCARVRVDYDSSGYDAYYYHLDVWGQGTTVTVSS
VL: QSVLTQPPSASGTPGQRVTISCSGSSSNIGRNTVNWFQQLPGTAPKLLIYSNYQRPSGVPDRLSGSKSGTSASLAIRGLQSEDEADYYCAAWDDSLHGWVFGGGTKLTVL
notes: expressed as IgG
Turning to B15, the binding result in test [15] was “no binding”.

B16: CV2-9 (antibody, V domains shown)
VH: EVQLVESGGGLIQPGGSLRLSCAASGFTVSSNYMTWVRQAPGKGLEWVSIIYSGGSTYYADSVKGRFTISRDNSKNTLYLQMNSLRAEDTAVYYCAAGYYDSINWGQGTLVTVPS
VL: DIQMTQSPSTLSASVGDRVTITCRASQSISTWLAWYQQKPGKAPKLLIYKASNLESGVPSRFSGSGSGTEFTLTISSLQPDDFATYYCQQYYTYSWTFGQGTKLEIKR
notes: expressed as IgG
B16: the binding result in test [16] is on record as “no binding”.
